Measured values from publication PMC10593859 (2023).

Experiments:
Ad26 viral particles [1] = experiment: SPR; post-Ad26 vaccination human serum (1:5) flowed over Ad26 first
Ad26 viral particles [2] = experiment: as above; remark: listed apart in the source
Ad26 viral particles [3] = experiment: SPR; pre-vaccination human serum (1:5) flowed over Ad26 first
Ad26 viral particles [4] = experiment: as above; remark: listed apart in the source

B1: recombinant human platelet factor 4 (PF4) (natural protein)
chain: EAEEDGDLQCLCVKTTSQVRPRHITSLEVIKAGPHCPTAQLIATLKNGRKICLDLQAPLYKKIIKKLLES
Binder B1 has a Kd (Ad26 viral particles [1]) of 478 nM, a Kd (Ad26 viral particles [2]) of 612 nM and a Kd (Ad26 viral particles [3]) of 233 nM. It also gave a Kd (Ad26 viral particles [4]) of 122 nM.
